Three proteins from patent US20240084330A1 (BROAD INSTITUTE, published 2024) can be followed below.

This data set deals with the molecule itself. Put plainly: self-assembly of E. coli-produced protein; size exclusion and electron microscopy.

B1: MmPNMA5 (mouse PNMA5 produced in E. coli, tags removed) (other, UniProt Q5DTT8 1-618, looked up)
chain: MAVALLDDWCKGMDLDPKKAVLIVGIPVQYTEAAINDALKEGLPPLCAYKVIGRMFRREDEAKAVLIELPEVVDYTMMPTHIPAEGGAWEVVVKPRSPDDEFMNKLIYFLRDEGRRIVDVAKALGFSTVPTGKIELKNLDQDKPKGLKSLCNNSTCYKKLKVFSGSPFPGPGEESFETWLEEVTELMQLWQVSEREKKQCLLESLRGSALSIMQALWTSNDSLTVEQCLKALKHIFGNKEDSKVLQFRFLQSSQKPAEKVSDYLLRLEPLLQKAVQQSPLSAHSADSIRLKHVLSQVSMTTGLRGKLSLLDQQGCPPTFLELMKLTRDEEEWESTVVVEEQEQVRRDSSACEAANEVVTQAEDSREVSTQTTGEEMTSVKRRRLLWRHSAGEEGQRKESGFWAESEPDEQKPYVRAQESGNERGAWAVSHPNPKEIEAQDSQEFLPVAGNRDTLTKSWGSPDKGTGDMSVAEGQQGQGKAPNFLLARNDPNKQEQIPHSSVTTKWQDRGECQRLKWGASMITRPQGNPDRSWDTSGSQDGEDGCSELRMPTGTEAAQGVEEPATGLSWAEDTSAWEQARLGRETVPRRGGRRIQPVFRIIYTALGEPHEGSTLESFRE
notes: Cloned from mouse cDNA into a TwinStrep-SUMO backbone; tags cleaved with SUMO protease before size exclusion
As for B1, the binding result is listed as “binds”.

B2: MmPNMA3 (mouse PNMA3 produced in E. coli, tags removed) (other, UniProt Q8JZW8 1-466, looked up)
chain: MPLNLLQDWCRGEHLNTQRSMLILGIPEDCSEDEFEETLHEALKHLGRYRIIGRMFRREENAQAFLVELARDFDYALVPREIEGKGGPWEVVVKPPHSDDEFLNRLNHFLEEERRTVSDMNRVLGTHSNHSPTKTTISADFWVWAQTLGAVMQPLLEQMLYRELRVFSGNTISIPGLLAFDSWLEHTTEMLQMWQVPEVEKRRRLMECLRGPALQVVNVLRANNAAITVKECLEALRQVFGSVDNRKIAQLKFCKAYQEPGEKVSSFVVRLETLLQKALEKNAISRKNVNQTRLKRILGGAILSAKLREKLKMLKQRRRPPGFLALVKLFREEEEEWEATRGSERSCYEGLELGPSPSNIGSEERELFVPAFGSVLEERPYQGSRRRRHRRRGQHRKGGVPRDDSQGTRKQNYDTFCYSCGEDGHIRVHCFNPSNRTLVKQKRQAAMEKGNRSWAWEKSHPKPKTK
notes: as for B1
B2: the binding result was “binds”.

B3: MmMOAP1 (mouse MOAP1 produced in E. coli, tags removed) (other, UniProt Q9ERH6 1-352, looked up)
chain: MTLRLLEDWCRGMDMNPRKALLVAGIPPTCGVADIEEALQAGLAPLGEHRLLGRMFRRDENKNVALIGLTVETGSALVPKEIPAKGGVWRVIFKPPDTDSDFLCRLNEFLKGEGMTMGELTRVLGNRNDPLGLDPGIMIPEIRAPMLAQALNEALKPTLQYLRYKKLSVFSGRDPPGPGEEEFESWMFHTSQVMKTWQVSDVEKRRRLIESLRGPAFEIIRVLKINNPFITVAECLKTLETIFGIIDNPRALQVKYLTTYQKTDEKLSAYVLRLEPLLQKLVQKGAIEKEVVNQARLDQVIAGAVHKSVRRELGLPEGSPAPGLLQLLTLIKDKEAEEEEVLLQAELEGYCT
notes: Cloned from mouse cDNA into a TwinStrep-SUMO backbone; tags cleaved with SUMO protease before size exclusion; also called modulator of apoptosis 1; Pnma4
For the protein B3, the binding result is recorded as “binds”.
